From the nanobody polyreactivity screen of Harvey et al. (2022)

Assay: yeast display, Sf9 membrane polyspecificity reagent, FACS + sequencing; frameworks hold sequencing errors
Procedure, shortened: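 After 36–48 hours of galactose induction, yeast (Saccharomyces cerevisiae BJ5465) displaying a synthetic nanobody library were stained at 4 °C for 1 hour with 10% biotinylated, detergent-solubilized Sf9 membrane reagent. Streptavidin microbeads enriched the stained cells before FACS sorting into low and high (top ~1%) gates on anti-HA and streptavidin fluorescence. Each clone's polyreactivity label reflects its gate of origin.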

Question: With “QVQLVESGGGLVQAGGSLRLSCAASGIIFRYYAMGWYRQAPGKERELVAVITGRGGGTYYADSVKGRFTISRDNAKNTVYLQMNSLKPEDTAVYYCAKDFTGHYPKGFDYWGQGTQVTVSS” as the sequence, how does the “polyreactivity (PSR sort gate)” value read?
Answer: low polyreactivity

Question: With “QVQLVESGGGLVQAVGTLRLTCAASGITFNVNAMGWYRQEPGKERELVARITTSGGSTSYADSVKGRFTISRDNAYNTVYLQMNSLKPEDTAVYYCAADRARYFSEYDYWGQGTQVTVSS” as the sequence, how does the “polyreactivity (PSR sort gate)” value read?
Answer: low polyreactivity

Question: Which “polyreactivity (PSR sort gate)” value does the source give for “QVQLQESGGGLVQAGGSLRLSCAASGYIFPRIDMGWYRQAPGKEREFDAGISYDAITNYADSVKGRFTISLDNAKNTVYLQMNSLKPEDTAVYYCAVSYYGTPLFTYWGQGTQVTVSS” here?
Answer: high polyreactivity

Question: Which “polyreactivity (PSR sort gate)” value does the source give for “QVQLVESGGGLVQAGGSLRLSCAASGITFYFYAMGWYRQAPGKERELVAAITRGGRTNYADSVKGRFTISRDNAKNTVYLQMNSLKPEDTAVYYCNKRLYSYYPGKYVAEYDYWGQGTQVTVSS” here?
Answer: high polyreactivity

Question: For “QVQHVESGGGLVQAGGSLRLSCAASGIIFFKNAMGWYRQAPGKERELVAAISSTDTRTYYADSVKGRFTISRDNAKNTVYLQMNSLKPEDTAVYYCAASRRGGGLDYWGQGTQVTVSS”, which “polyreactivity (PSR sort gate)” value is on record?
Answer: high polyreactivity

Question: For “QVQLVESGGCLVQAGGSLRLSCAASGRTFPYNVMGWYRQAPGKERELDAGITGSGDSTFYADSVKGRFTISRDNAKNTFYLQMNSLNPDDTSVYYCAARYRTLNDGYIRNYWGQGTQVTVSS”, which “polyreactivity (PSR sort gate)” value is on record?
Answer: low polyreactivity

Question: For “QVQLVESGGGLVQAGGSLRLSCAASGLTCASYVMGWYRQAPGKERELVAAISSSGDSTYYADSVKGRFTISRDNAKNTFYLEMNSLKPEDTAVYYCASNDYVWGQGTQVTVSS”, which “polyreactivity (PSR sort gate)” value is on record?
Answer: low polyreactivity

Question: For “QVQLVESGGGLVQAGGSLRISCAASGIIFKGYAMGWYRQAPGKERELVAAISHNADSTYADSVKGRFTISRDNAKNTVYLQMNSLNPEDTAVYYCNADTPLRSDYWGQGTQVTVSS”, which “polyreactivity (PSR sort gate)” value is on record?
Answer: low polyreactivity

Question: Which “polyreactivity (PSR sort gate)” value does the source give for “QVQLVESGGGLVQAGGSLRLSCAASGSIFHGYAMGWYRQAPGKERELVAAISSTGGSTYYADSVKGRFTISRDNAKNTVYLQMNSLKPEDTAVYYCAAYYYVGYRARRYDYWGQGTQVTVSS” here?
Answer: high polyreactivity

Question: Which “polyreactivity (PSR sort gate)” value does the source give for “QVQLVESGGGLVQAGGSLRLTCAASGSIFTGNTMGWYRQATGKERELVAAITGSGGRTYYADSVKGRFTISRDNAKNTVYLQMNSLKPEDTAVYYCAADRSYYPDTRTTYGYNYWGQGTQVTVSS” here?
Answer: low polyreactivity

Question: Which “polyreactivity (PSR sort gate)” value does the source give for “QVQLVESGGGLVQAGGSLRLSCAASGITFDNYAMGWYRQAPGKEWELVAAISSDDNTTYADSVKGRFTISRDNAKNTVYLQMNSLKPEDSAVYYCAADSRIYGYWEYDYCGQGTQVTVSS” here?
Answer: low polyreactivity

Question: With “QVQLVESGGGLVQAGGSLRLSCAATVSIFDRNAMGWYRQAPGKERELVAAISSVGSTNYADSVKGRFTISRDNAKNTVYLQMNSLKPEDTADYYCAAENEFIPSLFDYWGQGTQVTVSS” as the sequence, how does the “polyreactivity (PSR sort gate)” value read?
Answer: low polyreactivity

Question: With “QFQLVESGGGLVQAGGSLRLSCASSGRTFGYNTMGWYRQAPGKERELVAAINYSGGSTYYADSVKGRFTISRDNAKNTVYLQMNSLKPEDTAVYYCNAKPRWYVPYDYWGQGTQVTVSS” as the sequence, how does the “polyreactivity (PSR sort gate)” value read?
Answer: high polyreactivity

Question: Which “polyreactivity (PSR sort gate)” value does the source give for “QDQLVESGGGLVQAGGSLRLSCAASGSTFSYYAMGWYRQATGKERELVASISTRGGSTYYADSVKGRFTISRDNAKNTVYLQMNSLKPEDTAVYYCAATIRPRGVARVDYWGQGTQVTVSS” here?
Answer: high polyreactivity

Question: For “QVQLVETGGGLVQAGGSLRLSCAASGSTFDYNAMGWYRQAPGKERELVASITESGDSTYYADSVKGRFTISRDNAKNTVYLQMNSLKPEDTAVYYCAATQVHWVYVVYYEYEYWGQGTQVTVSS”, which “polyreactivity (PSR sort gate)” value is on record?
Answer: low polyreactivity

Question: For “QVQLVESGGGLVQAGGSLRLSCAASGSTFGLYAMGWYRQAPGKERELVADITWSGGSTYYADSVKGRFTISRDNAKNTVYLQMNSLKPEDTAVYYCAARYPWVYYDFDYWGQGTQVTVSS”, which “polyreactivity (PSR sort gate)” value is on record?
Answer: low polyreactivity

Question: With “QVQLVESGGGLVQAGGSLRLSCAASGITFSLYVMGWYRQAPGKERELVAAISTSGGSTYYADSVKGRFTISRDNAKNTVYLQMTSLKPEDTAVYYCAAVYVLSWYVQTYDYWGQGTQVTVSS” as the sequence, how does the “polyreactivity (PSR sort gate)” value read?
Answer: low polyreactivity

Question: For “QVQLVESGRGLVQAGGSLRLSCAASGSTFLYYAMGWSRQAPGKEMELVAVISWSGVSTYYADSVKGRFTISRDNAKTTVYLQMNSLKPEDTAVYYCAAVPVHTGSLYWGFTTGYDYWGQGTQVTVSS”, which “polyreactivity (PSR sort gate)” value is on record?
Answer: low polyreactivity

Question: Which “polyreactivity (PSR sort gate)” value does the source give for “QVQLGESGGGLVQAGGSLRLSCAASGGIFIGNAMGWYRQAPGKERELVAAISFSGGSTYYADSVKGRFTISRDNAKNTVYLQMNSLKPEDTAVYYCARRIGHGSRPYWLETWRYPYDYWGQGTQVTVSS” here?
Answer: low polyreactivity

Question: For “QVQLVESGGGLVQAGGSLRLSCAPSGSIVRGYAMAWYRQAPGKERELVAAINSSGTRTYYADSVKGRFTISRDNAKNTVYFQLYSLKPEDSAVYYCAARAVSEYFVVPFYYWGQGTQVTVSS”, which “polyreactivity (PSR sort gate)” value is on record?
Answer: high polyreactivity

Question: With “QVQLVESGGGLVQAGGSLRLSCAASGRIFTYYGMGWSRQAPGKEMELVAAISSSGDSTFYADSVKGRFTISRDNAKNTVYLQMNSLKPEDTAVYYCAADYYYVWYDYWGQGTQVTVSS” as the sequence, how does the “polyreactivity (PSR sort gate)” value read?
Answer: low polyreactivity

Question: With “QVQLVESGGGLVQAGGSLRLSCAASGHIFGGNAMGWYRQAPGKEMELVATISSGGSTHYADSVKGRFTISRDNAKNTVYLQMHSLKPEDTAVYYCAARRSYRATAYKYDYWGQGTHVTVSS” as the sequence, how does the “polyreactivity (PSR sort gate)” value read?
Answer: low polyreactivity

Question: Which “polyreactivity (PSR sort gate)” value does the source give for “QVQLVESAGGLVQAVGSHRLSSATSGSIFSGNSMGWYRQAPGTQSELVADISQNGGRTYYADSVKGRFTISRDNAKYTVYLQINSLKPEDTGVYYCAARGWYRYGSVYYIGDYWGQGTQGTVSS” here?
Answer: high polyreactivity

Question: For “QVQLVESGGGLVQPGGSLRLSCAASGSILKSYAMGWYRQAPGKERELVAAITYRDGSTYYAHSVKGRFTISRDNSKNTVYLQMNSLKPVDTAVYYCAAEPSWWNVFYPGYNYWGQGTQVTVSS”, which “polyreactivity (PSR sort gate)” value is on record?
Answer: high polyreactivity

Question: With “QVQLVESGGGLVQAGGTLRLSCAASGLIFKKYTMGWYRQAPGKERELVASISKSGGSTYYADSVKGRFTISRDNAKNTVYLQMISLKPEESAVYYCNRVTHYIRFDYWGQGTQVTVSS” as the sequence, how does the “polyreactivity (PSR sort gate)” value read?
Answer: low polyreactivity

Question: Which “polyreactivity (PSR sort gate)” value does the source give for “QVQLVESGGGLVQAGGSLRLSCAASGFILRAYAMGWYRQAPGKEREFVAAITRRGGSTYYADSVKGRFTISRDNAKNTVYLQMNSLKPEDTAVYYCAAKFFSSPHNLGYWGQGTQVTVSS” here?
Answer: high polyreactivity

Question: Which “polyreactivity (PSR sort gate)” value does the source give for “QVQLVESGGGLVQAGGSLRLSCAASGRTFWDYGMGWYRQAPGKERELVATISGNGGDTYYADSVKGRFTISRDNAKNTVYLQMNSLKPEDTAVYYCAAAWPSTGLLYVLGYSGYGYWGQGTQVTVSS” here?
Answer: low polyreactivity

Question: For “QVQLVESGGGLVQAGGSLRLSCAASGSIFAYYTMGWSRQAPGKERELVAAITSGGSTNYADSVKGRFTISRDNAKNTVYLQMNSLKPEDTAVYYCAVQGSRYSYRYGYRFRTMDYWGQGTQVTVSS”, which “polyreactivity (PSR sort gate)” value is on record?
Answer: high polyreactivity

Question: With “QVQLVESGGGLVQAGGSLRLSCAASGSIFTSYAMGWYRQAPGKERELVAGITRGGRTYYADSVKGRFTISRDNAKNTVYLQMNSLKPEDTAVYYCAALSSRHFVFTVDYWGQGTQVTVSS” as the sequence, how does the “polyreactivity (PSR sort gate)” value read?
Answer: high polyreactivity

Question: Which “polyreactivity (PSR sort gate)” value does the source give for “QVQLVESGGGLVQEGGSLRLSCAASGRTIVSNAMGWYRQAPGKERELVAAIRYGGGRTYYADSVKGRFTISRDNAKNTVYLQMNSLKPEDTAVYYCAKRSVGGTGYYWGQGTQVTVSS” here?
Answer: high polyreactivity

Question: Which “polyreactivity (PSR sort gate)” value does the source give for “QVQLVETGGGLVQAGGSLRLSCAASGSTFRFYVMGWYRQAPGKERELVAAISTSGGSTYYADSVKGRFTISRDTAKNTVYLQMNSLKPEDTAVYYCAADLIASLRPYYQYDYWGQGTQVTVSS” here?
Answer: low polyreactivity

Question: For “QVQLEESGGGLVQAGGSLRLSCAASGSILLGYDMGWYRTAPGKERELVASIDTNGGSPYYADSVKGRFTISRDNAKNTVYLQSNSLKPEDTAVYYCNADPSFVGGTYDYWGQGTQVTVSS”, which “polyreactivity (PSR sort gate)” value is on record?
Answer: low polyreactivity

Question: With “QVQLVESGGGLVQAGGSLRLSCAASGSTFAANAMGWYRQAPGKERELVAAITSSGGSTFYADSVKGRFTISRDNAKNTVYLQMNSLKPEDTAVYYCNKDIERYVRIYDSWGQGTQVTVSS” as the sequence, how does the “polyreactivity (PSR sort gate)” value read?
Answer: low polyreactivity

Question: With “QVQLVESGGGLVQAGGSLRLSCAASGFIFYEYAMGWYRQAPGKERELVAAISSGGDTNYADSVKGRFTISRDNANNTVYLQMNSLKPEDTAVYYCAKDYSDPGWAEYDYWGQGTQVTVSS” as the sequence, how does the “polyreactivity (PSR sort gate)” value read?
Answer: low polyreactivity

Question: With “QLQLVESGGGLVQAGGSLRLSCAASGRTFVRYAMGWYRQAPGKERELVAGISRSTGGTYYADSVKGRFTISRDNAKNTVYLQMNSLKPEDTAVYYCAAVYHKNGSGDYSWGQGTQVTVSS” as the sequence, how does the “polyreactivity (PSR sort gate)” value read?
Answer: high polyreactivity

Question: With “QVQLVESGGGLVQAGGSLRLSCAASGLTFIKYAMGWYRQAPGKEREFVADISKRGGTTYYADSVKGRFTISRDNAKNTVYLQMNSLKPEDTAFYYCAARQYLNVYYRYDYWGQGTQVTVSS” as the sequence, how does the “polyreactivity (PSR sort gate)” value read?
Answer: high polyreactivity

Question: Which “polyreactivity (PSR sort gate)” value does the source give for “QVQLVESGGGLVQAGGSLRISCAASGTTFPYNGMGWYRQAPGKERELVASISWSGASTYYADSVKGRFTISRDNAKNTVYLQMNSLKPEDTAVYYCAADPGYYSWGSSQDDYWGQGTQVTVSS” here?
Answer: low polyreactivity

Question: For “QVQLVESGGGLFQAGGSLRLSCASSGSIFLIYAMGWYRQAPGKERELVAAITQRGGSTYYADSVKGRFTISRDNAKISVYLQMESLKPEDTAVYYCNARRYVMRYNRFYYWGQGTQVTVSS”, which “polyreactivity (PSR sort gate)” value is on record?
Answer: high polyreactivity

Question: Which “polyreactivity (PSR sort gate)” value does the source give for “QVQLVESGGGLVQAGGSLRLSCAASGSIFVRNAMGWYRQAPGKERELVAAITARGGSTYYADSVKGRFTISRDNAKNTVYLLMHSLKPEDTAVYYCARSYYYRGWAQWRYDYWGQGTQVTVSS” here?
Answer: high polyreactivity

Question: Which “polyreactivity (PSR sort gate)” value does the source give for “QVQLVESGGGLVQAGGSLRLSCAASGGIFAYYAMGWYRQAPGKERELVAAITSRGGRTYYADSVKGRFTISRDNAKNTVYLQMNSLKPEDTAVYYCAAEYINSNYQWYYYWGQGTQVTVSS” here?
Answer: high polyreactivity
